Data published in article PMC9769368.

Target: AAVGo.1 virus-like particles (goat adeno-associated virus capsid, without DNA genome) (goat adeno-associated virus AAVGo.1)
Assay: ELISA; direct ELISA in duplicate; AAV VLPs (2.5 ug/mL) coated on plates in 100 mM NaHCO3 pH 9.6, washed with TBST; N-terminally His-tagged AAVR fragment added, detected with anti-6x His HRP antibody; OD 450 nm; EC50 by nonlinear regression (avidity)

Substance: His6PKD1, fragment of human AAV receptor (AAVR) with PKD domain 1 (domain or fragment)
- fold stronger binding avidity than AAV5: 3 fold

Substance: His6PKD12, fragment of human AAV receptor (AAVR) with PKD domains 1 and 2 (domain or fragment)
- fold stronger binding avidity than AAV5: 2 fold
